In US7662384B2, “Use of anti-α5β1 antibodies to inhibit cancer cell proliferation” (Facet Biotech Corporation, priority 2004, dated 2010):

B1: IIA1: parent mouse IgG1 class anti-α5β1 antibody shown to inhibit α5β1 integrin binding to fibronectin (antibody, V domains shown)
VH: MAVLGLLLCLVTFPSCVLSQVQLKESGPGLVAPSQSLSITCTISGFSLTDYGVHWVRQPPGKGLEWLVVIWSDGSSTYNSALKSRMTIRKDNSKSQVFLIMNSLQTDDSAMYYCARHGTYYGMTTTGDALDYWGQGTSVTVSS
VL: MDFQVQIFSFLLISASVIMSRGQIVLTQSPAIMSASLGERVTMTCTASSSVSSNYLHWYQQKPGSAPNLWIYSTSNLASGVPARFSGSGSGTSYSLTISSMEAEDAATYYCHQYLRSPPTFGGGTKLEIK
modifications: mus muscalus
B2: M200: chimeric IgG4 anti-α5β1 antibody derived from IIA1; generic name volociximab (antibody, V domains shown)
VH: B1 VH
VL: MDFQVQIFSFLLISASVIMSRGQIVLTQSPAIMSASLGERVTMTCTASSSVSSNYLHWYQQKPGSAPNLWIYSTSNLASGVPARFSGSGSGTSYSLTISSMEAEDAATYYCHQYLRSPPTFGGGTKLEIKDMSVDMSV
modifications: chimeric antibody
notes: chimeric IgG4 anti-α5β1 antibody derived from IIA1; generic name volociximab

Experiments:
NW231 cells = assay: NW231 orthotopic xenograft in SCID mice; format: in vivo; conditions: 10 mg/kg intraperitoneally, 3 times/week for 3 weeks
Description: (§1) NW231 and LOX cells were grown as orthotopic xenografts in SCID mice and challenged with the anti-α5β1 antibodies M200 and IIA1 by intraperitoneal injection.
(§2) Immune compromised mice CB-17 SCID (strain C.B-Igh1/IcrTac-Prkdc) were obtained from Taconic Farms (Germantown, N.Y.). Studies were initiated using female mice between the ages of 6-10 weeks (˜20 grams in weight). Animals were pre-dosed with M200, IIA1 or control IgG intraperitoneally at a dose of 10 mg/kg 1 hour prior to NW231 inoculation (1×10^7 cells in IMDM) into the mammary fat pad. Dosing continued for 3 weeks at a frequency of 3 times/week at 10 mg/kg. Tumor volume was measured twice weekly by caliper and calculated by π/6×length×width×height. Clinical and mortality observations were performed daily according to IACUC regulations.

mouse α5β1 integrin = mouse α5β1 integrin (Mus musculus, UniProt P09055+P11688); assay: species cross-reactivity of anti-α5β1 antibody; format: binding
LOX cells = assay: LOX orthotopic xenograft in SCID mice; format: in vivo; conditions: 10 mg/kg intraperitoneally, 3 times/week for 3 weeks
Description: as §1, §2

VX2 cancer cells = assay: SCID mouse VX2 xenograft model; format: in vivo; conditions: SCID mice; 10 mg/kg intraperitoneally, 3 times/week for 3 weeks
Description: as §2, with “M200, IIA1,” for “M200, IIA1”, “mg/kg one” for “mg/kg 1”, “to VX2” for “to NW231”, “in Iscove's Modified Dulbecco's Medium)” for “in IMDM)”, “Dosing was” for “Dosing”

angiogenesis = conditions: monkey eye model; cited from earlier work
rat α5β1 integrin = assay: species cross-reactivity of anti-α5β1 antibody; format: binding
VX2 carcinoma = assay: M200 VX2 rabbit tumor efficacy study; format: in vivo
Description: Starting on Day 5, tumor dimensions (Length, Width and Height) were measured in millimeters via electronic vernier calipers connected to a laptop computer at a minimum frequency of twice weekly. For consistency, the same trained technician performed the tumor measurements throughout the course of the study. Tumor volume was calculated using the formula: Length×Width×Height×0.52. Upon animal termination, tumors were carefully excised, trimmed and weighed. In addition, animals were weighed a minimum of once weekly. Representative samples of each tumor were preserved in sample cassette in formalin or OCT and flash frozen in liquid nitrogen.
Rabbits (30 total) were inoculated, either subcutaneously or intramuscularly with either a VX2 cell suspension (100 μl) or pieces of tumor (˜5-10 mm^3). The test group of 20 was treated with M200 at 10 mg/kg intravenously, twice weekly for 3 weeks. The control group of 10 animals was treated with a control IgG delivered by the same method as the M200. Tumor measurements, termination, weighing, tumor preservation and study duration were carried out according to the methods described above for the Pilot Study. In addition, one milliliter of blood was taken from an ear vessel on a weekly basis for serum analysis.

[1] = Phase I dose-escalation study: immunogenicity (double-antigen bridging ELISA); format: in vivo, human
Description: Immunogenicity of M200 was determined by a double-antigen bridging ELISA assay. Serum samples for anti-M200 antibodies were obtained from patients before treatment, prior to the second dose, and at study exit, 45 days after the last dose of M200. In addition, serum for anti-M200 antibodies was drawn if the interval between doses was […]. Samples were stored and evaluated at the end of the study. Samples that tested positive for antibodies to M200 were re-assayed for neutralizing antibodies to M200. Patients with known exposure to murine or chimeric monoclonal antibodies were screened for the presence of anti-M200 antibodies prior to receiving the first dose of M200.

Sequence of mouse α5β1 integrin (P11688 45-1053): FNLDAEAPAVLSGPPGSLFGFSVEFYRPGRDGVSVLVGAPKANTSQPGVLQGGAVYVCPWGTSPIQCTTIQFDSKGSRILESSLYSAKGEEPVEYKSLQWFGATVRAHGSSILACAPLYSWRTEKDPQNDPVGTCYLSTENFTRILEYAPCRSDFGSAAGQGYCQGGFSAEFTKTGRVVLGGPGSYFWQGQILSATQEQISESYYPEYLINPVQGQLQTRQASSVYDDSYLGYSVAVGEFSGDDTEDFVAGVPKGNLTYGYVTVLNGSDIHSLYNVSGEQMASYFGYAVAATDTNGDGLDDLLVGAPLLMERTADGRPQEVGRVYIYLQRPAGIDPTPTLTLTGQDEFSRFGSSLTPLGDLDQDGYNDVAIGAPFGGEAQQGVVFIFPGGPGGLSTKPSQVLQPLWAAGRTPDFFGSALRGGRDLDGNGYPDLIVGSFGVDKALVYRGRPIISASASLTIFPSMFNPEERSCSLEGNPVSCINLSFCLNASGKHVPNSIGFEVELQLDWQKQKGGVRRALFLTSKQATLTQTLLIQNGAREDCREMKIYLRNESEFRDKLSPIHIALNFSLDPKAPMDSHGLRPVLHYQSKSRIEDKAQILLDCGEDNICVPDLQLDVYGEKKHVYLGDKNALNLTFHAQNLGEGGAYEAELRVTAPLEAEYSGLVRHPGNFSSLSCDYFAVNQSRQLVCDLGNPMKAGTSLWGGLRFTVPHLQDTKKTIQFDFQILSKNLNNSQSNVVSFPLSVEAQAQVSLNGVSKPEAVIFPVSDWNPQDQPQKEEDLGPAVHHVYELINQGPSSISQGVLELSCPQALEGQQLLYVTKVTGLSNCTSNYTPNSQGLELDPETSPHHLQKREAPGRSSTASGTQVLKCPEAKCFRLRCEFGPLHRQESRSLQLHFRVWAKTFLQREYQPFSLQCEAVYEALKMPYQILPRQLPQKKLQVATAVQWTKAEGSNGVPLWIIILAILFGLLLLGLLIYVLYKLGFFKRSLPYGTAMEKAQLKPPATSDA
Sequence of mouse α5β1 integrin (P09055 21-798): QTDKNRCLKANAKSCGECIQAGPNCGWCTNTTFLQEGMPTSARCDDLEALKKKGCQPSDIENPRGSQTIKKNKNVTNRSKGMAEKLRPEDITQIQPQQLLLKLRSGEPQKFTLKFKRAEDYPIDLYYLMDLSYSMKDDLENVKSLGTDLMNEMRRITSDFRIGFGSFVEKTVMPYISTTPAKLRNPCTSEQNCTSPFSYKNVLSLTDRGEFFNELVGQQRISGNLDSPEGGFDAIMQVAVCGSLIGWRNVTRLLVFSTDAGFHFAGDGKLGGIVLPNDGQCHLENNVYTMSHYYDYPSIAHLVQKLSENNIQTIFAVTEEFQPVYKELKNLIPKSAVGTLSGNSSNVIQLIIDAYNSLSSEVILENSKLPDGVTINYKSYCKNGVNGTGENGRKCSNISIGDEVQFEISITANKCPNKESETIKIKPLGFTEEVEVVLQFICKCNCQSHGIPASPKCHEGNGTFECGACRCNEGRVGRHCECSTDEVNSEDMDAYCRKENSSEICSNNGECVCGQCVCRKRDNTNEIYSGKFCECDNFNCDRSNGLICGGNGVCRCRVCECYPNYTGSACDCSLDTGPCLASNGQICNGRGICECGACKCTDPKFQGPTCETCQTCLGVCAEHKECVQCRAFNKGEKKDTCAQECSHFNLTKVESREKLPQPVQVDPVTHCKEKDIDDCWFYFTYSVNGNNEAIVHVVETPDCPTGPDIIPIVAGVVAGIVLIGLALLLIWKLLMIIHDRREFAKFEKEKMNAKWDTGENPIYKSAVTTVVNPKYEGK

| Molecule | NW231 xenograft tumor growth (NW231 cells) | recognition of mouse α5β1 integrin (mouse α5β1 integrin) | LOX xenograft tumor growth (LOX cells) | VX2 xenograft tumor growth versus control IgG (VX2 cancer cells) | in vivo anti-angiogenic efficacy (angiogenesis) | cross reaction with rat α5β1 integrin (rat α5β1 integrin) | circulating level of M200 at which tumor growth was inhibited (VX2 carcinoma; rabbit VX2 model) | VX2 tumor growth (VX2 carcinoma; rabbit, 10 mg/kg intravenously, twice weekly for 3 weeks) | immunogenicity (VX2 carcinoma; rabbits, immune response as early as two weeks, eventually all animals seroconvert) | patients tested positive for anti-M200 antibodies ([1]; 0.5 mg/kg and 1.0 mg/kg dose levels) | patients tested positive for anti-M200 ([1]; higher dose cohorts) |
| --- | --- | --- | --- | --- | --- | --- | --- | --- | --- | --- | --- |
| B1 | reproducibly inhibit | does not recognize | reproducibly inhibit | did not correlate with a decreased rate of VX2 tumor growth | – | – | – | – | – | – | – |
| B2 | not found to reproducibly inhibit tumor growth | does not cross react | not found to reproducibly inhibit tumor growth | did not correlate with a decreased rate of VX2 tumor growth | in vivo anti-angiogenic efficacy | does not cross react | ≥ 50 µg/mL | able to inhibit tumor growth | immunogenic in rabbits | Three | No patients |
